We go through two molecules from patent US20140056902A1 (Kyowa Kirin, published 2014).

The target of assay [1] is T1, human mature dimer BMP9 recombinant protein (manufactured by R&D systems, Cat#3209-BP) (human, UniProt Q9UK05 320-429).
T1 construct: Bought protein; also called human BMP9; human BMP9 recombinant protein (manufactured by R&D systems)
T1 sequence: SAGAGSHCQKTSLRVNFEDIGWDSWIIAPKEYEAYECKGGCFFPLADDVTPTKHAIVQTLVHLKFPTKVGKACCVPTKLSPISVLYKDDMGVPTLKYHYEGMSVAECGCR
Briefly: ELISA, immobilized human BMP9 (100 ng/mL coat), biotin-labeled antibody titrated, absorbance 450-570 nm; unit ng/mL from the legend. Here is the method: First, 100 ng/mL of human mature dimer BMP9 recombinant protein (manufactured by R&D systems, Cat#3209-BP) prepared in 50 mmol/L NaHCO₃ buffer was added to a 96-well plate for ELISA (F96 MAXISORP NUNC-IMMUNO PLATE, manufactured by Thermo Fisher Scientific, Cat#439454) at an amount of 50 μL/well, and left at 4° C. overnight for adsorption.
After removal of the reagent for immobilization, 200 μL/well of SuperBlock (manufactured by Thermo […], Cat#37535) was added, and left at room temperature for 1 hour for blocking, and washing was carried out using TBST three times. Subsequently, the biotin-labeled 6D10-1-1 antibody, 10D5-2-3 antibody, 3B7-3-3 antibody or R&D antibody was prepared at a concentration of 1, 5, 20, 100, or 300 ng/mL using 10% Super Block in TBST. Each 50 μL/well thereof was aliquoted, and left at room temperature for 1 hour.
(§1) The plate was washed with TBST five times, and 50 μL/well of the TMB substrate reagent (TMB+ Substrate-Chromogen, manufactured by Dako, Cat#S1599) was added for color-development. When proper color was developed, 50 μL/well of the 1 N sulfuric acid solution (manufactured by Wako, Cat#192-04755) was added, and absorbance (450 nm-570 nm) at a sample wavelength of 450 nm and at a reference wavelength of 570 nm was determined using a plate reader (manufactured by Spectra Max, Molecular Devices).
(In general: An ELISA detects its analyte on a solid surface through an enzyme-linked reagent.)

Assay [2] concerns the target T2, human BMP9 recombinant protein prepared according to Example 12 of WO 2010/126169 (N-terminal His-tagged … (human, UniProt Q9UK05 320-429; Q9UK05 23-319).
T2 construct: not shown: N-terminal His tag
T2 sequence 1: T1 sequence
T2 sequence 2: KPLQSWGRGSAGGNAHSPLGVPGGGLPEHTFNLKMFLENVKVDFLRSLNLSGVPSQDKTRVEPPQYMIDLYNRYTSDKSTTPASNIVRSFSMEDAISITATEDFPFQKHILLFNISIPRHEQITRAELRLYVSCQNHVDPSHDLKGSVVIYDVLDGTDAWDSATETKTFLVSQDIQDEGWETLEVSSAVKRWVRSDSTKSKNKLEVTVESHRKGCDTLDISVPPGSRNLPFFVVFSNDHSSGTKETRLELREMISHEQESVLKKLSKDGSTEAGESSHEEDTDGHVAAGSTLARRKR
Briefly: SPR (BIAcore 2000), antibody captured on anti-mouse IgG, human BMP9 recombinant protein as analyte, single cycle kinetics. The text has this: The binding activity (affinity) of the obtained antibodies to human BMP9 recombinant protein was examined using BIAcore 2000 (manufactured by GE Healthcare). After anti-mouse IgG antibody was immobilized onto a CM5 sensor chip using a Mouse Antibody Capture Kit (manufactured by GE Healthcare), anti-human BMP9 antibody was coupled to an RU value of 700-1100.
Thereafter, 0.152 nmol/L, 0.457 nmol/L, 1.37 nmol/L, 4.1 nmol/L, 12.3 nmol/L, 36.89 nmol/L, 110.67 nmol/L, and […] of the human BMP9 recombinant protein prepared in Example 7-1 were prepared by using an HBS-EP solution (manufactured by GE Healthcare) and added as analytes, and binding affinity was measured.
Based on the obtained values, the dissociation constant (Kd value) was calculated by single cycle kinetics (BIAevaluation Software ver. 3, manufactured by GE Healthcare).

Assay [3] addresses T3, human mature dimer BMP10 recombinant protein (manufactured by R&D systems, Cat#2926-BP) (human, UniProt O95393 317-424).
T3 construct: Bought protein; also called human BMP10
T3 sequence: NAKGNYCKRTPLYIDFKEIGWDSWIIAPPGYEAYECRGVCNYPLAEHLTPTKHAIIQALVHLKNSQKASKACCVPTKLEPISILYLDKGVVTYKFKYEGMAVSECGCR
Kind of assay: ELISA, immobilized antigen (100 ng/mL coat), biotin-labeled antibody at 100 ng/mL, absorbance 450-570 nm. Here is the method: To examine specificity of the obtained antibodies to human BMP9, their binding ability to human BMP9 and human BMP10 having the highest homology to human BMP9 was tested by comparison. First, 100 ng/mL of human mature dimer BMP9 recombinant protein (manufactured by R&D systems, Cat#3209-BP), or human mature dimer BMP10 recombinant protein (manufactured by R&D systems, Cat#2926-BP) prepared in 50 mmol/L NaHCO₃ buffer (manufactured by Wako, Cat#191-01305) was added to a 96-well plate for ELISA (F96 MAXISORP NUNC-IMMUNO PLATE, manufactured by Thermo Fisher Scientific, Cat#442404) at an amount of 50 μL/well, and left at 4° C. overnight for adsorption.
Subsequently, 6D10-1-1 antibody, 10D5-2-3 antibody, 3B7-3-3 antibody, R&D antibody, or anti-BMP10 antibody (manufactured by R&D, Cat#MAB2926) that was labeled with biotin using a Biotin Labeling Kit-NH2 (manufactured by COSMO BIO, Cat#LK03) was prepared at a concentration of 100 ng/mL using 10% Super Block in TBST which was prepared by mixing SuperBlock and TBST at a ratio of 1:9. 50 μL/well thereof was aliquoted as a primary antibody, and left at room temperature for 1 hour.
as §1

In assay [4] the target is T4, N-terminal His-tagged BMP10 expressed by the pLN1V5_human BMP10 vector (human, UniProt O95393 22-424).
T4 sequence: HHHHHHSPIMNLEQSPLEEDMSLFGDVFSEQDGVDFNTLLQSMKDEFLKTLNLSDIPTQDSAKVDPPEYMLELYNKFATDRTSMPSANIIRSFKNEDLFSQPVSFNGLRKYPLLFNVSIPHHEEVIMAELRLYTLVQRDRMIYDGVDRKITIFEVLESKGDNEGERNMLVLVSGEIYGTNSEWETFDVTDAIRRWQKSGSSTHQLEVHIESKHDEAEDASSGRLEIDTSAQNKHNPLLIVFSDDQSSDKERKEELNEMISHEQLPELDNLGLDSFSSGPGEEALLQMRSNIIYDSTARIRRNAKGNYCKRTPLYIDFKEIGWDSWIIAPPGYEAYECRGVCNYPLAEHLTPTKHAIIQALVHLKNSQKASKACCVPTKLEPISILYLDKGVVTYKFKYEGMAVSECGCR
Briefly: antigen-immobilized ELISA, antigen coated at 3 ug/mL. Here is the method: (§2) Antigen immobilized ELISA of the obtained antibodies was performed using the chimeric protein. 3 μg/mL of the recombinant human BMP9, BMP10, and BMP9/10 chimeric proteins of Example 20-2 in 50 mmol/L NaHCO₃ buffer were added to a 96-well plate for ELISA (F96 MAXISORP NUNC-IMMUNO PLATE, manufactured by Thermo Fisher Scientific, Cat#442404) at an amount of 50 μL/well, and left at 4° C. overnight for adsorption.
(§3) After removal of the reagent for immobilization, 200 μL/well of 1% BSA-PBS was added, and left at room temperature for 1 hour for blocking, and washing was carried out using PBST five times. […]
(§4) The plate was washed with PBST ten times, and 50 μL/well of the TMB chromogen reagent (TMB+Substrate-Chromogen, manufactured by Dako, Cat#S 1599) was added for chromogenic reaction. When the intensity of chromogenic reaction became strong enough, 50 μL/well of a 1 N sulfuric acid solution (manufactured by Wako, Cat#192-04755) was added, and absorbance at 450 nm and 570 nm was determined using a Multiskan Spectrum (manufactured by Thermo Labsystems).

The target of assay [5] is T5, chimeric protein 5 of human BMP9/10 region C (human, UniProt Q9UK05 320-429; Q9UK05 23-319).
T5 construct: Made in the pLN1V5_human BMP9 vector (His-tagged complex); also called Chimera 5; human BMP9/BMP10 chimeric protein 5; not shown: N-terminal His tag
T5 chain 1: T1 sequence with S80E, V84I, L95Y, Y97F, H98K, S103A, A105S
T5 chain 2: T2 sequence 2
Kind of assay: antigen-immobilized ELISA, antigen coated at 3 ug/mL, antibody 1000 ng/mL; + = absorbance of 1 or more. The method, then: as §2, §3, §4

Residue numbers refer to the chain shown, from its start.

In general, EC50 (read off the curve) refers to the concentration that produces a half-maximal response. What is called Kd is a measure of binding affinity in units of concentration.

B1: 6D10-1-1 antibody (antibody, mouse IgG1, V domains shown)
VH: QVQLQQSGAELVRPGTSVKVSCKASGYAFTNYLMEWIKQRPGQGLEWIGVIHPGIGVTNYNEKFKGKATLTADISSSTAYMQLSSLTSEDSAVYFCARRANWDLYYFDYWGQGTTLTVSS
VL: DIQMTQITSSLSASLGDRVTISCSASQDISNYLNWYQQKPDGTVKLLIYYTSSLHSEVPSRFSGSGSGTDYSLTISNLEPEDIATYYCQQYINLPLTFGAGTKLELKR
notes: Mouse monoclonal from a BMP9 KO mouse hybridoma; also called 610D-1-1 antibody
Consider B1, for which, in assay [1], the “EC50 (read off the curve)” value is around 8 ng/mL. For the same molecule, in assay [2], the Kd came out at 0.0297 nM and the “Relative binding affinity (to R&D antibody)” value came to 20.7 fold. Moreover, the binding result in assay [3] is “no binding (tested: 100 ng/mL)”. Moreover, in assay [4], the binding result was “no binding”.

B2: 10D5-2-3 antibody (antibody, mouse IgG1, V domains shown)
VH: EVKLEESRGGLVQPGGSMKLSCVASGFTFSNYWMNWVRQSPEKGLEWVAHIRLKSDNYATHYAESVRGRFTISRDDSKSSVFLQMNNLRAEDTGIYYCTGGSNYVFAFWGQGTLVTVSA
VL: not shown
notes: Mouse monoclonal from a BMP9 KO mouse hybridoma; mouse IgG1 heavy chain, kappa light chain
For the molecule B2, the Kd in assay [2] was 0.00969 nM. Further, the “Relative binding affinity (to R&D antibody)” value in assay [2] came out at 63.6 fold. Moreover, the binding result in assay [5] is “binds”; in assay [3] it was “no binding (tested: 100 ng/mL)”; in assay [4] it was “no binding”.
